Reference: patent US20100104603A1 (published 2010)
Ends that are not written are not given here.

Assays:
[1] = target: T1, Staphylococcal superantigen-like protein 5 (SSL5) of S. aureus strain NTCT 8325, recombinant (Staphylococcus aureus strain NTCT 8325, UniProt A0A0H3K6Z6 31-234)
T1 sequence: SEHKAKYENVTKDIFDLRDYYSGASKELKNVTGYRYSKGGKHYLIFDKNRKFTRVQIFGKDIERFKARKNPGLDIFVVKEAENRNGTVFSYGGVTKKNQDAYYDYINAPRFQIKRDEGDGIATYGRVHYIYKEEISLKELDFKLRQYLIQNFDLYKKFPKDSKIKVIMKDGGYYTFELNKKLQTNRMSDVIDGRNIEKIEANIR

[2] = target: T2, IL-8 (UniProt P10145 28-99); assay: ELISA: IL-8-coated wells, PSGL-1/Ig without SSL5
T2 construct: also called biotin-labeled IL-8
T2 sequence: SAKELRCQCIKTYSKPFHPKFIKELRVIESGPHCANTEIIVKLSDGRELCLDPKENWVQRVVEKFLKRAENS

B1: recombinant human PSGL-1-Fc construct (PSGL-1/Ig fusion protein) (Fc fusion)
chain: QATEYEYLDYDFLPETEPPEMLRNSTDTTPLTGPGTPESTTVEPAAR
modifications: ends and bridges not checked; also: fused to Ig Fc part
notes: also called rPSGL/Ig; not shown: Ig/Fc part
[1]
  Kd: 820 nM
[2]
  binding result: no binding (tested: 1 µg/ml)
